T1: soluble BCMA (sBCMA) (human, UniProt Q02223 1-54)
T1 construct: also called BCMA ECD; Biotinylated BCMA
T1 sequence: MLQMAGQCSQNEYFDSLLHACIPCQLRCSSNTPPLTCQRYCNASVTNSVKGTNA

B1: sBCMA-mAb2 (antibody, V domains shown)
VH: QSLEESGGDLVKPGASLTLTCTASGFSFSSSYWICWVRQAPGKGLEWIACIYAGSGDFTYYASWAKGRFTVSKTSSTTVTLQMTSLTAADTATYFCARDAATSYYSHYFTLWGPGTLVTVSS
VL: DVVMTQTPASVSEPVGGTVTIKCQASQSIYSGLAWYQQKPGQPPKLLIYDASDLASGVPSRFSGSGYGTEFTLTISGVQCEDAATYYCQVTHYESGVPLGGGTEVVVEG
notes: Rabbit monoclonal IgG; also called rabbit monoclonal anti-sBCMA antibody sBCMA-mAb2
B2: sBCMA-mAb3 (antibody, V domains shown)
VH: QEQLEESGGGLVKPGGTLTLTCKASGMDFSSYYYMCWVRQAPGKGLEWIACIFSDSGGHTAYASWAEGRFTISKTSSTTVTLQMTSLTVADTATYFCARDRRDVVYIRDLWGPGTLVTVSS
VL: ALVMTQTPSPVSAAVGGTVTISCQSSESVYNNNALAWYQQKPGQPPKLLIYGASSLASGVPSRFKGSGSGTQFTLTISDLECDDAATYYCAGYKRYNNDGHAFGGGTEVVVKG
notes: Rabbit monoclonal IgG; also called rabbit monoclonal anti-sBCMA-mAb3
B3: sBCMA-mAb1 (antibody, V domains shown)
VH: QSLEESGGDLVKPGAFLTLTCTASGFSFSSGYYICWVRQAPGKGLEWIACIYTGSSGSTDYASWAKGRFTISKTSSTTVTLQMTSLTAADTATYFCARDYGHSYWNLWGPGTLVTVSS
VL: DIVMTQTPASVEAAVGGTVTIKCQASEDISSRLAWYQQKPGQPPKLLIGAASTLASGVSSRFKGSRSGTEYTLTISDLECADAATYYCLGDYYVSSYGNAFGGGTEVVVKG
notes: Rabbit monoclonal IgG, used as purified recombinant antibody; also called rabbit monoclonal anti-sBCMA antibody sBCMA-mAb1; sBCMA-mAbl

What was measured:
soluble BCMA (sBCMA) = molecular target: T1, soluble BCMA (sBCMA); assay: SPR (Biacore 3000, 25 C); mAb captured on goat anti-rabbit IgG Fc, sBCMA as analyte; 1:1 Langmuir with mass transfer
Method: Experiments were performed using a Biacore 3000 (GE Healthcare) at 25° C. The running buffer was HBS-P (10 mM HEPES, pH7.4, 150 mM NaCl, 0.05% Surfactant P-20)+0.1% BSA, and kinetics were performed at a high flowrate (100 μl/min). 10 mM Glycine, pH 1.7 was used for regeneration.
Surface preparation: A goat anti-rabbit IgG Fc (Prod. #111-005-046 from Jackson Research) was diluted 1/20 in NaAcetate, pH 5 and covalently coupled to the sample and reference Fc (Fc 1) of a CMS sensor chip using amine coupling. Individual mAbs were diluted in HBS-P+0.1% BSA and captured on either Fc 2, 3, or 4 at 0.3 μg/ml for kinetic analysis of binding to sBCMA.
Interaction Parameters: sBCMA (1.19 mg/ml stock) was injected as analyte at 600 nM, 300 nM, 150 nM, 75 nM, 37.5 nM, 18.8 nM, and 9.4 nM with the 75 nM concentrated run twice to gage reproducibility. The association rate was monitored for 2.5 minutes. The dissociation time was 20 minutes to determine more accurate kinetics for those mAbs with slower off-rates. The data was double background referenced in that both a reference Fc and a 0 nM analyte concentration were subtracted from the data. A 1:1 Langmuir binding model with mass transfer was used from the Biacore evaluation software.

sBCMA-mAb1 = molecular target: B3; assay: Octet: sBCMA-mAb3 on captured sBCMA-mAb1 without BCMA (sensor blocked with irrelevant IgG)

Kd (soluble BCMA (sBCMA)) [nM] | koff (soluble BCMA (sBCMA)) [s⁻¹] | kon (soluble BCMA (sBCMA)) [M⁻¹ s⁻¹] | binding result (sBCMA-mAb1) | Binder
377 | 0.0185 | 49200 |  | B1
4.5 | 0.00405 | 901000 | no binding (tested: not given) | B2
0.103 | 6.47e-05 | 630000 |  | B3
